Measurements taken from patent KR20190053464A (dated 2019).

B1: 7H3C11FW (antibody, V domains shown)
VH: QVQLVESGGGVVQPGRSLRLSCAASGFAFGSYTMHWVRQAPGKGLEWVTLISFDGRSKLYGDSVKGRFTISRDNSKNSLYLQMNSLRAEDTAVYYCARGSVRGEAAFDLWGQGTLVTVSS
VL: SYELTQPPSVSVSPGQTASITCSGDNLRTKYVSWYQQKPGQSPVLVIYQDTRRPSGIPERFSGSNSGNTATLTISGTQAMDEADYYCMTWDVDTTSMIFGGGTKLTVL

Molecular target: 인간 IL-17A (human IL-17A, R&D system) (human, UniProt Q16552 20-155, limits assumed)
Assay: cell-based or functional assay

인간 IL-17A (human IL-17A, R&D system), sequence (Q16552 20-155 limits assumed): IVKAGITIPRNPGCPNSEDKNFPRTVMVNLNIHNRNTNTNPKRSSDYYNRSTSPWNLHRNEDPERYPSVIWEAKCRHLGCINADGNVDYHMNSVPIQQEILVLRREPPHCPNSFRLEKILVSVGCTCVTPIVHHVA

Molecule | IC50 of inhibition of IL-17A-dependent IL-6 secretion, HeLa cells | fold better IC50 than secukinumab in-house, HeLa IL-6 assay
세쿠키누맙 (secukinumab), made in-house (antibody) | 4.16 nM | 
B1 | 2.88 nM | ~1.4 fold
